Assay results published in paper PMC9371921, “Strand annealing and motor driven activities of SMARCAL1 and ZRANB3 are stimulated by RAD51 and the paralog complex” (Nucleic Acids Research, 2022).

Molecular target: T1, RAD51B;RAD51C;RAD51D;XRCC2 (Homo sapiens;Homo sapiens;Homo …, UniProt O15315;O43502;O75771;O43543 1-384;1-376;1-328;1-280, |||)
T1 sequence 1: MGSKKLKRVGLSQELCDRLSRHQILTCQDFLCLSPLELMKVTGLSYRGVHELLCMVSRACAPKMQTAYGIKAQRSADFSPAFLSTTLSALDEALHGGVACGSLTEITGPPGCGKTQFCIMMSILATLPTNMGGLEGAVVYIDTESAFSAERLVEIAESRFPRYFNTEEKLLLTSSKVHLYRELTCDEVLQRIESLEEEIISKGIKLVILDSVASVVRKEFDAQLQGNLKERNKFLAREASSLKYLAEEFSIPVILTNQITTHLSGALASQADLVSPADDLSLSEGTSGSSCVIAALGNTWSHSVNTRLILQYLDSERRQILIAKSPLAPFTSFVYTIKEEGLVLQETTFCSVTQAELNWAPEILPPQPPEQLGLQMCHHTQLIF
T1 sequence 2: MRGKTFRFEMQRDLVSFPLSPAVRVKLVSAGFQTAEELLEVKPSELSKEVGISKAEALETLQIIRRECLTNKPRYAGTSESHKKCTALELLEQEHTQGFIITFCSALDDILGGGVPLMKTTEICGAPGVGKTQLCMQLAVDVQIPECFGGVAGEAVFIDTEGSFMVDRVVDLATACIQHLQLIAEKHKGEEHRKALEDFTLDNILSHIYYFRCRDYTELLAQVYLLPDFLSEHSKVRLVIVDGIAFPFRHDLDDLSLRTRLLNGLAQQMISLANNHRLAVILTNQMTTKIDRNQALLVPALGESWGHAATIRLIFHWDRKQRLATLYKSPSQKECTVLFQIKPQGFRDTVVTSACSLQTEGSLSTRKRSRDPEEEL
T1 sequence 3: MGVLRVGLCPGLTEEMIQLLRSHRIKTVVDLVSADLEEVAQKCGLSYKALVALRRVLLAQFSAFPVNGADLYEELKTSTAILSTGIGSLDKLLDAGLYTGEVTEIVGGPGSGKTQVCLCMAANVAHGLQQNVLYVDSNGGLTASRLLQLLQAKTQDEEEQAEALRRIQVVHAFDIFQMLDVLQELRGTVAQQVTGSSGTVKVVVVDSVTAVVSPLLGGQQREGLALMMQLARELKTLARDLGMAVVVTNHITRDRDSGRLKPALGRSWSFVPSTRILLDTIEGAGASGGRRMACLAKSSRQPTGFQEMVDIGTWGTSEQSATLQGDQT
T1 sequence 4: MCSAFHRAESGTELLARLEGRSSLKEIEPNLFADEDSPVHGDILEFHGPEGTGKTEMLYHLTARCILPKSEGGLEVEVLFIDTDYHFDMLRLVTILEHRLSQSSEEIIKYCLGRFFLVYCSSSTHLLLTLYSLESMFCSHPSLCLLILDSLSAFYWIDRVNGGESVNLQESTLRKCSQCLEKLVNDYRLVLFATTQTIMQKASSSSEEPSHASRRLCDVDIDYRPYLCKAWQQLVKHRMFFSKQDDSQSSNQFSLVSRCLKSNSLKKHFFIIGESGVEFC
Assay: EMSA; 1 mM ATP, 1 mM Mg acetate; EMSA: 1 nM DNA, 20 mM Tris-acetate pH 7.5, 1 mM DTT, 1 mM magnesium acetate, 0.1 mg/ml BSA, 1 mM ATP, 30 min at 37 C; 6% PAGE in 1x TBE at 4 C
Settings: protein: recombinant;recombinant;recombinant;recombinant; tags: FLAG;10xHis;none;none; copies: 1;1;1;1; label: 5'-32P

B1: 70-mer ssDNA (PC210) (ssDNA)
DNA: GTAAGTGCCGCGGTGCGGGTGCCAGGGCGTGCCCTTGGGCTCCCCGGGCGCGTACTCCACCTCATGCATC
B1: binds.
